Measurements reported in article PMC10515491, “Intrinsically Disordered Flanking Regions Increase the Affinity of a Transcriptional Coactivator Interaction across Vertebrates” (Biochemistry, 2023).

T1: D. rerio NCBD (nuclear coactivator binding domain of CBP), Trp variant (D. rerio)
T1 chain: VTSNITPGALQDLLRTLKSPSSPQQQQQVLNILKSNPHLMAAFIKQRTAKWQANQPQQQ

T2: C. milii NCBD (nuclear coactivator binding domain of CBP), Trp variant, first four residues truncated (C. milii)
T2 chain: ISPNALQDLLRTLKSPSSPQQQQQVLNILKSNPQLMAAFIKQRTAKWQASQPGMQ

T3: S. purpuratus NCOA N-CID-C (CID with N- and C-terminal flanking regions) (S. purpuratus, UniProt A0A7M7N2F3 1037-1156)
T3 construct: Gly-Ser remains at the N-terminus after thrombin cleavage; the Uniprot entry W4YZZ7 was withdrawn; annotated in NCBI as neurogenic protein mastermind; also called long version; source: expression construct ordered from Genscript; not shown: 6 His-tagged lipo domain, N-terminal, cleaved
T3 sequence: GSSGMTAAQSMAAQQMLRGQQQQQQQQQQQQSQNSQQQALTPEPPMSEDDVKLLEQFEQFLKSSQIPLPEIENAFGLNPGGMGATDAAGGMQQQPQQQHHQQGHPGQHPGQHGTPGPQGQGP

T4: H. sapiens NCOA1 N-CID-C (H_sapiens_NCOA1_N-CID-C_885-1004) (H. sapiens, UniProt Q15788 885-1004)
T4 construct: Gly-Ser remains at the N-terminus after thrombin cleavage; also called CID with flanking regions; Src1; not shown: His6, N-terminal, cleaved; lipo domain, N-terminal, cleaved
T4 sequence: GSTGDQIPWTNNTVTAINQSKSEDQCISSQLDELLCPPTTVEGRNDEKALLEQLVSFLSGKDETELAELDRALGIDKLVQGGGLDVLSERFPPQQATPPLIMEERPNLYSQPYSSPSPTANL

B1: H. sapiens CBP NCBD domain, Trp variant (H_sapiens_NCBD 2058-2116, Tyr2108 to Trp) (domain or fragment)
chain: GSPPRSISPSALQDLLRTLKSPSSPQQQQQVLNILKSNPQLMAAFIKQRTAKWVANQPGMQ
notes: Gly-Ser remains at the N-terminus after thrombin cleavage; Trp introduced at Tyr2108 for the kinetic studies; not shown: His6, N-terminal, cleaved; lipo domain, N-terminal, cleaved

Columns and labels:
[1] = biological target: C. milii CBP NCBD domain, Trp variant (C_milli_NCBD 2031-2089) (Callorhinchus milii); assay: stopped-flow spectroscopy; Trp variant of NCBD of the same species mixed with CID or N-CID-C; kon from the slope of kobs against CID concentration; koff from displacement of the complex by an excess of wild-type NCBD (average of three experiments); Kd = koff/kon; 20 mM sodium phosphate pH 7.40, 150 mM NaCl, 4 °C; double exponential fit for human and C. milii NCOA3, the high kobs used for Kd
[2] = biological target: S. purpuratus NCBD (nuclear coactivator binding domain of CBP), wild type (S. purpuratus); assay: ITC; MicroCal iTC200, 25 °C, 20 mM sodium phosphate pH 7.40, 150 mM NaCl
[3] = biological target: T1, D. rerio NCBD (nuclear coactivator …)
[4] = biological target: D. rerio CBP NCBD domain, Trp variant (D_rerio_NCBD 2064-2122) (Danio rerio); assay: stopped-flow spectroscopy; Trp variant of NCBD of the same species mixed with CID or N-CID-C; kon from the slope of kobs against CID concentration; koff from displacement of the complex by an excess of wild-type NCBD (average of three experiments); Kd = koff/kon; 20 mM sodium phosphate pH 7.40, 150 mM NaCl, 4 °C; double exponential fit for human and C. milii NCOA3, the high kobs used for Kd
[5] = biological target: H. sapiens NCBD (nuclear coactivator binding domain of CBP), Trp variant (H. sapiens, UniProt Q92793 2058-2116, a Trp was introduced at the position corresponding to Tyr2108 in human NCBD)
[6] = biological target: B1; assay: stopped-flow spectroscopy; Trp variant of NCBD of the same species mixed with CID or N-CID-C; kon from the slope of kobs against CID concentration; koff from displacement of the complex by an excess of wild-type NCBD (average of three experiments); Kd = koff/kon; 20 mM sodium phosphate pH 7.40, 150 mM NaCl, 4 °C; double exponential fit for human and C. milii NCOA3, the high kobs used for Kd; details: both partners purified
[7] = biological target: T2, C. milii NCBD (nuclear coactivator …)
[8] = biological target: T3, S. purpuratus NCOA N-CID-C (CID with N- …); assay: ITC; MicroCal iTC200, 25 °C, 20 mM sodium phosphate pH 7.40, 150 mM NaCl; details: both partners purified
[9] = biological target: T4, H. sapiens NCOA1 N-CID-C …; assay: stopped-flow spectroscopy; Trp variant of NCBD of the same species mixed with CID or N-CID-C; kon from the slope of kobs against CID concentration; koff from displacement of the complex by an excess of wild-type NCBD (average of three experiments); Kd = koff/kon; 20 mM sodium phosphate pH 7.40, 150 mM NaCl, 4 °C; double exponential fit for human and C. milii NCOA3, the high kobs used for Kd; details: both partners purified
[10] = biological target: T5, H. sapiens NCBD (nuclear coactivator binding domain of CBP), Trp variant (H. sapiens, UniProt Q92793 2058-2116, a Trp was introduced at the position corresponding to Tyr2108 in human NCBD); assay: stopped-flow spectroscopy; Trp variant of NCBD mixed with CID at varied concentration; kon from the slope of kobs, koff from displacement with excess wild-type NCBD, Kd = koff/kon; 20 mM sodium phosphate pH 7.40, 150 mM NaCl, 4 °C; details: both partners purified
T5 construct: Gly-Ser remains at the N-terminus after thrombin cleavage; also called human NCBD; Trp variant of NCBD; source: expression construct ordered from Genscript; not shown: 6 His-tagged lipo domain, N-terminal, cleaved

Kd [3] [nM]	Kd [4] [nM]	koff [4] [s⁻¹]	Molecule	other results
			C. milii NCOA3 N-CID-C (C_milli_NCOA3_N-CID-C_1037-1156) (domain or fragment)	Kd [1]: 88 nM; koff [1]: 3.78 s⁻¹
			S. purpuratus NCOA CID (minimal region) (domain or fragment)	Kd [2]: 5000 nM
			C. milii NCOA3 CID (C_milli_NCOA3_CID_1076-1117) (domain or fragment)	Kd [1]: 260 nM; koff [1]: 6.53 s⁻¹
15	14.7	0.716	D. rerio NCOA1 N-CID-C (CID with N- and C-terminal flanking regions) (domain or fragment) GSEPMTFDNSLANQTQAPLSSPQEQCVPCPLDEMLCPPTTPEGRNDEKALLEQLVTFLSHTDESELAELDRALGIDKIVQSGCLEPVTQTPFPQSQPPTPVPLDPKLPSYPSQFPTSPSQFP	
150	146	5.06	GPGSASEGPADEGALLSQLYSALKDFDGLEEIDRALGIPALVGQAQ (domain or fragment) [D. rerio NCOA2 CID (minimal region)]	
82	81.9	3.51	D. rerio NCOA2 N-CID-C (CID with N- and C-terminal flanking regions) (domain or fragment) GPGSPPNQTAPWPDSVMPIEPVPFGNQSSSMYGGSQEDVLCPPASEGPADEGALLSQLYSALKDFDGLEEIDRALGIPALVGQAQPVEQDQFPGQDPSMMMDQKPPMYGQQQYASSPANMQQAG	
			GSEGRNDEKALLEQLVSFLSGKDETELAELDRALGIDKLVQGGG (domain or fragment, Gly-Ser remains at the N-terminus after thrombin cleavage; also called Src1; not shown: His6, N-terminal, cleaved; lipo domain, N-terminal, cleaved) [H. sapiens NCOA1 CID (H_sapiens_NCOA1_CID_924-965)]	Kd [5]: 56 nM; Kd [6]: 55.7 nM; koff [6]: 1.59 ± 0.153 s⁻¹
			EAQSDEKALLDQLDTLLSNADEMGLEEIDRALGIPDLISQVQ (domain or fragment) [C. milii NCOA3 CID (minimal region)]	Kd [7]: 260 nM
300	300	7.29	GSEGQSDERALLDQLDSLLNNTDVIALEEIDRALGIPDLINQGH (domain or fragment) [D. rerio NCOA3 CID (minimal region)]	
			S. purpuratus NCBD (nuclear coactivator binding domain of CBP), wild type (domain or fragment, Gly-Ser remains at the N-terminus after thrombin cleavage; CBP, S. purpuratus (purple sea urchin), NCBD domain, residues 2316-2374 of Uniprot A0A7M7HNR9; the Trp variant is told only for the stopped-flow experiments; source: expression construct ordered from Genscript; not shown: 6 His-tagged lipo domain, N-terminal, cleaved) GSQRNNAPQQALQQLLQTLKSPHSPQQQKQVLTILKSNPQLMAAFIKQRSEHQQRMQQQQQ	Kd [8]: 8000 nM
170	168	5.34	D. rerio NCOA3 N-CID-C (CID with N- and C-terminal flanking regions) (domain or fragment) GSPPQSPSWPDSGMGMEGPPSANRLPINSPLDELLAPPSTSEGQSDERALLDQLDSLLNNTDVIALEEIDRALGIPDLINQGHSSDQPPPSDPFSGPCLGPDSSMGMEPPKAMYGQGYPGPP	
44	44.1	1.54	GSEGRNDEKALLEQLVTFLSHTDESELAELDRALGIDKIVQSGC (domain or fragment) [D. rerio NCOA1 CID (minimal region)]	
			B1	Kd [9]: 6.02 nM; koff [9]: 0.436 ± 0.0476 s⁻¹
			H. sapiens NCOA1 N-CID-C (CID with N- and C-terminal flanking regions) (domain or fragment, Gly-Ser remains at the N-terminus after thrombin cleavage; also called NCOA1 (Src1); source: expression construct ordered from Genscript; not shown: 6 His-tagged lipo domain, N-terminal, cleaved) GSTGDQIPWTNNTVTAINQSKSEDQCISSQLDELLCPPTTVEGRNDEKALLEQLVSFLSGKDETELAELDRALGIDKLVQGGGLDVLSERFPPQQATPPLIMEERPNLYSQPYSSPSPTANL	Kd [5]: 6 nM; fold increase in affinity with flanking regions against the CID without them [10]: 9 fold
			C. milii NCOA3 N-CID-C (CID with N- and C-terminal flanking regions) (domain or fragment) QTTSWSDNVLQMEQVHSGGQGRQPFGGSLDDLLCPPTTAEAQSDEKALLDQLDTLLSNADEMGLEEIDRALGIPDLISQVQPLEAHADQFSVQDTALMLEQKAMYGQQFNSQAGPMQGCY	Kd [7]: 88 nM
